According to publication PMC4843787 (Biochimica et biophysica acta, 2015):
Numbering of substitutions follows the chain as printed. Numbers in names are those of the source. Each block holds one binder with its values, some of them ahead of it.

Biological target: T1, MauG, bis-Fe(IV) redox state (UniProt Q51658 21-387)
T1 sequence (looked up): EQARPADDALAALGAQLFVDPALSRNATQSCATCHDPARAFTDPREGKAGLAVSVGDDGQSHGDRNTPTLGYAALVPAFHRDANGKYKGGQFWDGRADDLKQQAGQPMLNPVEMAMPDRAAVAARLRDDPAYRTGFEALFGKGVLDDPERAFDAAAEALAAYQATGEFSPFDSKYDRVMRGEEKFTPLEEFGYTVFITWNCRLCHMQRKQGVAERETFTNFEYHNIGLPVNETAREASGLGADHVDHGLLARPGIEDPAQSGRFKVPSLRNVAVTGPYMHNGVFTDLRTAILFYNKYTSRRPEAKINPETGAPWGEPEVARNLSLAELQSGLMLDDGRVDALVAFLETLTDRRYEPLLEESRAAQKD
Test: stopped-flow single-turnover kinetics

Kd: 165 ± 50 µM
B1: amicyanin from Paracoccus denitrificans, wild type, reduced Cu(I) form (natural protein, UniProt P22364 27-131, looked up)
chain: DKATIPSESPFAAAEVADGAIVVDIAKMKYETPELHVKVGDTVTWINREAMPHNVHFVAGVLGEAALKGPMMKKEQAYSLTFTEAGTYDYHCTPHPFMRGKVVVE

Kd: 240 ± 82 µM
B2: P94A amicyanin, reduced Cu(I) form (natural protein, Paracoccus denitrificans, UniProt P22364 27-131, looked up)
chain: B1 chain with P94A
